According to patent US11789012B2, “Cell death biomarker” (UCL Business PLC, priority 2016, dated 2023):

Tests used:
H2731 = assay: rTRAIL response, viability assay, H2731; type: cell-based, Human; conditions: BAP1 Essential Splice, heterozygous
Experimental: (§1) Manual “single dose” combination screening was undertaken using 96 well formats. Cells were plated on day 1 in previously optimized seeding densities in 180 μl if media. On day 2 20 μl of a 10× concentration of […] was added. Cells were then allowed to grow for 72 hrs or 6 days and fixed at the end of the assay. Drug wells were compared to DMSO treated control wells.
(§2) Single agent high throughput 5 point viability screening was undertaken in 384 well formats using robotic liquid handling with fixing with 4% paraformaldehyde and staining for viability with Syto60 nucleic acid dye (Invitrogen) (see below). Single agent dose response curves were derived for each library of 85-95 drugs according to the experiment used, and log IC50 or area under the curve (AUC) metrics were derived for each library compound in each cell line according to a previously derived formula [18].
(§3) Adherent cell lines were seeded 24 hours before drugging. Cells were trypsinised and counted before seeding at the optimal density for the size of well (96 or 384) and duration of assay. 72 hr after drug treatment cells were fixed with 4% paraformaldehyde for 30 minutes. […] Quantification of fluorescent signal was achieved using excitation/emission wavelength of 630/695 […].

SW1710 = assay: rTRAIL viability, bladder cancer cell line SW1710; type: cell-based; conditions: BAP1 wild-type
Description: (§4) FIG. 8A is a graph showing the effect of rTRAIL on the viability of various cancer cell lines. Bladder (RT4) and Breast (HCC1187) cancer cell lines with nonsense mutations in BAP1 show sensitivity to rTRAIL while renal cell cancer cell lines (769P & RCC10RGB) with missense mutation and wild-type renal (BB65RCC) and bladder cancer (SW1710) cell lines are resistant to TRAIL.

H2818 = assay: Cell death response to rTRAIL after BAP1 shRNA knockdown in H2818; type: cell-based, Human; conditions: H2818 BAP1 wild-type line
Experimental: Adherent mesothelioma cell lines were plated in a 96 well plate at approximately 10000 cells per well. Cells were plated and given 1 day to adhere at which time drug was added. After 48 hrs media, including floating cells, was collected from each well. The remaining adherent cells were washed with PBS and mobilised with 0.05% trypsin in EDTA. All cells were collected into tubes containing the previously removed media and pelleted by centrifugation (300 g, 5 minutes). Cells were then re-suspended in 1× Annexin V binding buffer with 10 μl/1 ml concentration of Annexin V-647 antibody (Invitrogen) and incubated for 15 minutes at room temperature. DAPI ([…]) was then added to each sample before flow cytometry analysis as below. Annexin V−/DAPI− cells were judged to be viable, AnnexinV+/DAPI− cells were considered to be undergoing apoptosis (early apoptotic phase), and Annexin V+/DAPI+ cells were considered late apoptotic or necrotic, and recorded as dead.
Lentivirus encoding shRNA targeting BAP1 was generated as per the lentivirus production protocol above. MPM cells (H2818) were transduced and treated with puromycin […] until a pure population was achieved. Immunoblotting was performed to assess efficacy of the shRNA knockdown.

H2461 = assay: rTRAIL response, viability assay, H2461; type: cell-based, Human; conditions: BAP1 Deletion - Frameshift, heterozygous
Experimental: as §1, §2, §3

RT4 = assay: rTRAIL viability, bladder cancer cell line RT4; type: cell-based; conditions: nonsense mutation in BAP1
Description: as §4

BB65RCC = assay: rTRAIL viability, renal cell line BB65RCC; type: cell-based; conditions: BAP1 wild-type
Description: as §4

H2373 = assay: rTRAIL response, viability assay, H2373; type: cell-based, Human; conditions: BAP1 Wild-type
Experimental: as §1, §2, §3

MDA MB-231 = assay: rTRAIL response after BAP1 knockdown in MDA MB-231; type: cell-based; conditions: MDA MB-231 breast cancer cell line, BAP1 shRNA
Description: as §4
The deubiquitinase BAP1 is frequently mutated in pleural mesothelioma (36%), uveal melanoma (47%) and intrahepatic cholangiocarcinomas (25%) as previously noted. To determine whether additional BAP1 mutant tumours occur that may also be amenable to this therapeutic approach, the inventors extended this analysis to a cohort of 5180 tumour samples in 20 cancer types using variant data from The Cancer Genome Atlas (TCGA). Truncating BAP1 mutations were also observed in a diverse range of cancer types, with frequencies of up to 6% (see FIGS. 1b, and c) Carbone, M. et al, Nature Reviews Cancer 13, 153-159 (March 2013). When the inventors extended their analysis to a panel of 1001 cancer cell lines that had previously been submitted for whole exome and copy number analysis, they identified 17 cell lines harbouring truncating mutations in BAP1. These included clear cell kidney cancer, bladder cancer and breast cancer cell lines. […]

NCI-H28 = assay: rTRAIL response, viability assay, NCI-H28; type: cell-based, Human; conditions: BAP1 Essential Splice, heterozygous
Experimental: as §1, §2, §3

H2369 = assay: rTRAIL response, viability assay, H2369; type: cell-based, Human; conditions: BAP1 Wild-type
Experimental: as §1, §2, §3

H2810 = assay: rTRAIL response, viability assay, H2810; type: cell-based, Human; conditions: BAP1 Wild-type
Experimental: as §1, §2, §3

mesothelioma cell lines = assay: Chemical screen, viability of mesothelioma cell lines by BAP1 mutation status; type: cell-based, Human; conditions: 6 day viability assay, 40 ng/ml rTRAIL
Experimental: FIG. 2A is a volcano plot showing drug-genome interactions in MPM. […] The Y-axis denotes adjusted p-Value, X-axis denotes effect size. Size of circle indicates number of mutant lines in cohort tested. […] Met 5a is a mesothelial normal control line. FIG. 2C is a scatter plot showing AUC following 6 day viability assay in response to 40 ng/ml rTRAIL (normalised to DMSO treated control) in cell lines discretized by BAP1 mutation status. […] Two-tailed t-test, p=0.015.
Manual “single dose” combination screening was undertaken using 96 well formats. Cells were plated on day 1 in previously optimized seeding densities in 180 μl if media. On day 2 20 μl of a 10× concentration of media from a stock of drugs was added. […]
A binary event matrix was compiled for the cell lines in the mesothelioma screen by aggregating copy number and exome data and this was used as input classifiers for genomic correlation. Data from this therapeutic screen was then analysed using a Multivariate Analysis of Variance (MANOVA) to annotate the sensitizing effect of genotype on dose response.
Adherent cell lines were seeded 24 hours before drugging. Cells were trypsinised and counted before seeding at the optimal density for the size of well (96 or 384) and duration of assay. […] Quantification of fluorescent signal was achieved using excitation/emission wavelength of 630/695 […].

MPP-89 = assay: rTRAIL response, viability assay, MPP-89; type: cell-based, Human; conditions: BAP1 Wild-type
Experimental: as §1, §2, §3

769P = assay: rTRAIL viability, renal cell cancer cell line 769P; type: cell-based; conditions: 769P renal; BAP1 missense mutation
Description: as §4

H226 = assay: rTRAIL response, viability assay, H226; type: cell-based, Human; conditions: BAP1 Deletion, Homozygous
Experimental: as §1, §2, §3

RCC10RGB = assay: rTRAIL viability, renal cell cancer cell line RCC10RGB; type: cell-based; conditions: BAP1 missense mutation
Description: as §4

NCI-H2452 = assay: rTRAIL response, viability assay, NCI-H2452; type: cell-based, Human; conditions: BAP1 Substitution - Missense, homozygous
Experimental: as §1, §2, §3

B1: rTRAIL: recombinant protein that activates the TRAIL pathway by binding to TRAIL-R1 (DR 4) and TRAIL-R2 (DR 5) (protein, UniProt P50591 1-281, looked up)
Tumor necrosis factor ligand …: MAMMEVQGGPSLGQTCVLIVIFTVLLQSLCVAVTYVYFTNELKQMQDKYSKSGIACFLKEDDSYWDPNDEESMNSPCWQVKWQLRQLVRKMILRTSEETISTVQEKQQNISPLVRERGPQRVAAHITGTRGRSNTLSSPNSKNEKALGRKINSWESSRSGHSFLSNLHLRNGELVIHEKGFYYIYSQTYFRFQEEIKENTKNDKQMVQYIYKYTSYPDPILLMKSARNSCWSKDAEYGLYSIYQGGIFELKENDRIFVSVTNEHLIDMDHEASFFGAFLVG
rTRAIL response (H2731): Sensitive
response to TRAIL (viability) (SW1710): resistant
TRAIL sensitivity after ablation of BAP1 with lentiviral shRNA vs parental line (H2818): shift towards increased sensitivity
rTRAIL response (H2461): Sensitive
response to rTRAIL (viability) (RT4): sensitivity
response to TRAIL (viability) (BB65RCC): resistant
rTRAIL response (H2373): Resistant
sensitivity to rTRAIL after knockdown of BAP1 (MDA MB-231): increases sensitivity
rTRAIL response (NCI-H28): Sensitive
rTRAIL response (H2369): Resistant
rTRAIL response (H2810): Resistant
sensitivity of BAP1 mutant cells compared with wild-type counterparts (mesothelioma cell lines): significantly more sensitive
rTRAIL response (MPP-89): Resistant
response to TRAIL (viability) (769P): resistant
rTRAIL response (H226): Sensitive
response to TRAIL (viability) (RCC10RGB): resistant
rTRAIL response (NCI-H2452): Resistant
